Test results as given in publication PMC2756588.

T1: Abp1, P15891
T1 sequence (P15891 535-592, looked up): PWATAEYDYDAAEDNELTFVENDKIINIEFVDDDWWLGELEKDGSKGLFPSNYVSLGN

T2: Bbc1, P47068
T2 sequence (P47068 1-78, looked up): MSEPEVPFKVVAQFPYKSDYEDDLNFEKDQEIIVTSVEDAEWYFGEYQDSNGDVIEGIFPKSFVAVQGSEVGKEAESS

T3: Boi1, P38041
T3 sequence (P38041 1-86, looked up): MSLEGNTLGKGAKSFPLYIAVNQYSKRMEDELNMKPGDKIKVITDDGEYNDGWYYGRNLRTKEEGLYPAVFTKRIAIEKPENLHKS

T4: Boi2, P39969
T4 sequence (P39969 32-116, looked up): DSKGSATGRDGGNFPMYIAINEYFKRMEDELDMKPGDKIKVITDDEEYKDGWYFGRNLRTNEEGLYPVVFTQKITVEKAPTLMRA

T5: Bud14, P27637
T5 sequence (P27637 247-328, looked up): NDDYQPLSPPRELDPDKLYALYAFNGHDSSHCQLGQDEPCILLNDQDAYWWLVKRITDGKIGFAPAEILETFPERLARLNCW

T6: Bzz1-1, P38822
T6 sequence (P38822 478-572, looked up): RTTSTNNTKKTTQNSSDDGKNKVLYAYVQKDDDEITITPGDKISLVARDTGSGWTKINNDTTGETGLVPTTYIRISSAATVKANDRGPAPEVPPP

T7: Bzz1-2, P38822
T7 sequence (P38822 568-633, looked up): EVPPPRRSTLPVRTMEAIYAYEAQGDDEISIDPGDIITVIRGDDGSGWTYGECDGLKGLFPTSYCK

T8: Cdc25, P04821
T8 sequence (P04821 50-136, looked up): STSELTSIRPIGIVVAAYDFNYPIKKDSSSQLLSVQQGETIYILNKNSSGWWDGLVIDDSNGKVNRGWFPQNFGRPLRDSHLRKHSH

T9: Cyk3, Q07533
T9 sequence (Q07533 1-83, looked up): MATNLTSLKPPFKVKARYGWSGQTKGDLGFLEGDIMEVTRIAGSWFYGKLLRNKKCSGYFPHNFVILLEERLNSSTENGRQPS

T10: Fus1, P11710
T10 sequence (P11710 432-512, looked up): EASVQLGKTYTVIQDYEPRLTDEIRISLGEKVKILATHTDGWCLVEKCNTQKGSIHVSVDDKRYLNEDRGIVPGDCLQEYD

T11: Hof1, Q05080
T11 sequence (Q05080 590-669, looked up): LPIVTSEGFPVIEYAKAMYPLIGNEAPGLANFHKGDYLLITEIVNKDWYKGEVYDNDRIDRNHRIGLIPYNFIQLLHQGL

T12: Hse1, P38753
T12 sequence (P38753 208-285, looked up): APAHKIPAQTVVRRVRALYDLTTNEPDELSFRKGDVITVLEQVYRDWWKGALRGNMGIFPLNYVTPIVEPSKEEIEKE

T13: Lsb1, P53281
T13 sequence (P53281 45-122, looked up): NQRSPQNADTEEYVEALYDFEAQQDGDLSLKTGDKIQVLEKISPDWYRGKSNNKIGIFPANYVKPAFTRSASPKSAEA

T14: Lsb3, P43603
T14 sequence (P43603 385-451, looked up): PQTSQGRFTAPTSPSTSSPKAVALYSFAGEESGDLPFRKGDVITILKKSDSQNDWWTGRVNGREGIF

T15: Lsb4, P32793
T15 sequence (P32793 402-468, looked up): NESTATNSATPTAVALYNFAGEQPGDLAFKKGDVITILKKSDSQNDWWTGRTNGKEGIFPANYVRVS

T16: Myo5, Q04439
T16 sequence (Q04439 1072-1160, looked up): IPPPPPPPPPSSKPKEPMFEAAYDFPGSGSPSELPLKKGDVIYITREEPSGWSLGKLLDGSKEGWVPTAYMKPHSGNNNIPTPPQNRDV

T17: Nbp2, Q12163
T17 sequence (Q12163 103-180, looked up): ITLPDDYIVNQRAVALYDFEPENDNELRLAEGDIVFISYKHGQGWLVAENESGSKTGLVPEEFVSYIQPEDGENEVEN

T18: Pex13, P80667
T18 sequence (P80667 295-386, looked up): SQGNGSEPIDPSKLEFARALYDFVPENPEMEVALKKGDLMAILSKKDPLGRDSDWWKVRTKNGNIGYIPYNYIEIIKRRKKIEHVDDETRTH

T19: Pin3, Q06449
T19 sequence (Q06449 53-122, looked up): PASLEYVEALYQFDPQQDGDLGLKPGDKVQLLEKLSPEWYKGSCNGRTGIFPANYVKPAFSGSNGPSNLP

T20: Sla1-2, P32790
T20 sequence (P32790 60-140, looked up): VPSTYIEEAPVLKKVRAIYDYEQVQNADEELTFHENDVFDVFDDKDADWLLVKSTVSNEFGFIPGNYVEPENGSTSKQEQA

T21: Sla1-3, P32790
T21 sequence (P32790 344-424, looked up): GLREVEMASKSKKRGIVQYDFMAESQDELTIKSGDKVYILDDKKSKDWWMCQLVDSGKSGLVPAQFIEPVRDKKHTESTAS


How the values were obtained:
Assay in all cases: SPOT array
Abp1, P15891 = target: T1, Abp1, P15891; settings: median of control spots 935
Bbc1, P47068 = target: T2, Bbc1, P47068; settings: median of control spots 796
Bem1-1, P29366 = settings: median of control spots 4282
Bem1-1, P29366, sequence (P29366 55-141): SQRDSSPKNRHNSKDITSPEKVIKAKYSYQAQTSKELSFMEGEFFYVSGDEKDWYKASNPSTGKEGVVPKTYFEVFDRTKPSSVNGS

Bem1-2, P29366 = settings: median of control spots 4347
Bem1-2, P29366, sequence (P29366 139-227): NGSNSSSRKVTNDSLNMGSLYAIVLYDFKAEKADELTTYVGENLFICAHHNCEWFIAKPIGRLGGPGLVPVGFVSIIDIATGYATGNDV

Boi1, P38041 = target: T3, Boi1, P38041; settings: median of control spots 1162
Boi2, P39969 = target: T4, Boi2, P39969; settings: median of control spots 1161
Bud14, P27637 = target: T5, Bud14, P27637; settings: median of control spots 956
Bzz1-1, P38822 = target: T6, Bzz1-1, P38822; settings: median of control spots 4446
Bzz1-2, P38822 = target: T7, Bzz1-2, P38822; settings: median of control spots 4538
Cdc25, P04821 = target: T8, Cdc25, P04821; settings: median of control spots 969
Cyk3, Q07533 = target: T9, Cyk3, Q07533; settings: median of control spots 1451
Fus1, P11710 = target: T10, Fus1, P11710; settings: median of control spots 1200
GST = settings: median of control spots 978
Hof1, Q05080 = target: T11, Hof1, Q05080; settings: median of control spots 4086
Hse1, P38753 = target: T12, Hse1, P38753; settings: median of control spots 1727
Lsb1, P53281 = target: T13, Lsb1, P53281; settings: median of control spots 388
Lsb3, P43603 = target: T14, Lsb3, P43603; settings: median of control spots 406
Lsb4, P32793 = target: T15, Lsb4, P32793; settings: median of control spots 397
Myo3, P36006 = settings: median of control spots 468
Myo5, Q04439 = target: T16, Myo5, Q04439; settings: median of control spots 471
Nbp2, Q12163 = target: T17, Nbp2, Q12163; settings: median of control spots 357
Pex13, P80667 = target: T18, Pex13, P80667; settings: median of control spots 1341
Pin3, Q06449 = target: T19, Pin3, Q06449; settings: median of control spots 2171
Rvs167, P39743 = settings: median of control spots 2707
Rvs167, P39743, sequence (P39743 419-482): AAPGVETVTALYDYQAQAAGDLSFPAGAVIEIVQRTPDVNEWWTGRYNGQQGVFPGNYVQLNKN

Sho1, P40073 = settings: median of control spots 1148
Sho1, P40073, sequence (P40073 287-367): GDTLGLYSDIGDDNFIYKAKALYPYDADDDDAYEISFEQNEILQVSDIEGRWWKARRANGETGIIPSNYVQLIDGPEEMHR

Sla1-2, P32790 = target: T20, Sla1-2, P32790; settings: median of control spots 712
Sla1-3, P32790 = target: T21, Sla1-3, P32790; settings: median of control spots 5475

| SPOT intensity (Abp1, P15891) | SPOT intensity (Bbc1, P47068) | SPOT intensity (Bem1-1, P29366) | SPOT intensity (Bem1-2, P29366) | SPOT intensity (Boi1, P38041) | SPOT intensity (Boi2, P39969) | SPOT intensity (Bud14, P27637) | SPOT intensity (Bzz1-1, P38822) | SPOT intensity (Bzz1-2, P38822) | SPOT intensity (Cdc25, P04821) | SPOT intensity (Cyk3, Q07533) | SPOT intensity (Fus1, P11710) | SPOT intensity (GST) | SPOT intensity (Hof1, Q05080) | SPOT intensity (Hse1, P38753) | SPOT intensity (Lsb1, P53281) | SPOT intensity (Lsb3, P43603) | SPOT intensity (Lsb4, P32793) | SPOT intensity (Myo3, P36006) | SPOT intensity (Myo5, Q04439) | Binder | other results |
| --- | --- | --- | --- | --- | --- | --- | --- | --- | --- | --- | --- | --- | --- | --- | --- | --- | --- | --- | --- | --- | --- |
| 212 | 192 | 8 | 3 | 24 | 3 | 18 | 6 | 70 | 91 | 5 | 655 | 0 | 15 | 143 | 71 | 10 | 14 | 71 | 15 | IFLRISINFPLNYPN | SPOT intensity (Nbp2, Q12163): 74; SPOT intensity (Pex13, P80667): 76; SPOT intensity (Pin3, Q06449): 101; SPOT intensity (Rvs167, P39743): 1; SPOT intensity (Sho1, P40073): 134; SPOT intensity (Sla1-2, P32790): 12; SPOT intensity (Sla1-3, P32790): 199 |
| 37 | 1 | 189 | 90 | 0 | 0 | 8 | 6 | 411 | 14 | 0 | 1430 | 0 | 59 | 134 | 14 | 0 | 6 | 81 | 10 | RHLKLVPSTPMDIPW | SPOT intensity (Nbp2, Q12163): 3; SPOT intensity (Pex13, P80667): 99; SPOT intensity (Pin3, Q06449): 329; SPOT intensity (Rvs167, P39743): 43; SPOT intensity (Sho1, P40073): 72; SPOT intensity (Sla1-2, P32790): 3; SPOT intensity (Sla1-3, P32790): 290 |
| 24 | 0 | 1 | 6 | 0 | 0 | 2 | 1 | 1 | 16 | 0 | 1 | 0 | 0 | 1 | 75 | 0 | 0 | 23 | 12 | PLRRTVMSLPGNHDI | SPOT intensity (Nbp2, Q12163): 18; SPOT intensity (Pex13, P80667): 31; SPOT intensity (Pin3, Q06449): 72; SPOT intensity (Rvs167, P39743): 0; SPOT intensity (Sho1, P40073): 12; SPOT intensity (Sla1-2, P32790): 3; SPOT intensity (Sla1-3, P32790): 0 |
| 56 | 11 | 0 | 25 | 5 | 1 | 17 | 0 | 5 | 216 | 1 | 28 | 0 | 18 | 50 | 0 | 0 | 0 | 0 | 0 | NNQRRKPLLLNIGDH | SPOT intensity (Nbp2, Q12163): 42; SPOT intensity (Pex13, P80667): 0; SPOT intensity (Pin3, Q06449): 0; SPOT intensity (Rvs167, P39743): 0; SPOT intensity (Sho1, P40073): 79; SPOT intensity (Sla1-2, P32790): 0; SPOT intensity (Sla1-3, P32790): 138 |
